The results in this text go back to paper PMC6750980.

As usually defined, the stoichiometry N is the number of molecules, sites or subunits per partner or assembly.

This assay has as its target Hepatitis C virus p7 protein from genotype 5a (EUH1480 strain) (Hepatitis C virus genotype 5a (EUH1480 strain)). Briefly: SEC. For orientation: Size exclusion chromatography separates by hydrodynamic size, large species first.

In turn, “Hepatitis C virus p7 protein from genotype 5a (EUH1480 strain) (natural protein)” came in with a stoichiometry N of 6.
